Source: the DeepSol protein solubility set

assay: soluble on expression in E. coli; label from the status in PepcDB or PDB records

| Sequence | soluble on expression in E. coli |
| --- | --- |
| MSLGILEQLENPKFKATKSEKTLIEYIKSDLDNIIYKSISIIAKESGVGEATITRFTKKLGFNGFQDFKVTLAKEISNKKNTSIINLHVHRDESVTETANKMLKSSINILEQTVKQIDLDLMCKCRDLIMNAKRVYFIGIGYSGIAATDINYKFMRIGFTTVPVTDSHTMVIMSSITNDDDVIVAISNSGTTKEVIKTVKQAKENGTKIITLTEDSDNPLRKLSDYELTYTSAETIFETGSISSKIPQIFLLDLLYTEVIKEMFSEAVEKKIKTTSAILNEGHHHHHH | soluble |
| AMAEAYQIQSNGDPQSKPLLELYVKASGIDARRIGADLFCQEFWMELYALYEIGVARVEVKTVNVNSEAFKKNFLGAQPPIMIEEEKELTYTDNREIEGRIFHLAKEFNVPLFEKDPSAEKRIENLYRNFKLFLRAKVEFDKGKKEPSRVEDLPAQIKVHYNRVCEQLSNIDQLLSERKSRYLLGNSMTEYDCELMPRLHHIRIIGLSLLGFDIPHNFTHLWAYILTAYRTAAFIESCPADQDIIHHYKEQMNLFTNQRETLQSPTKTHTIPEKVLSDIRVKGLAPDVNVH | soluble |
| MTALEVLGGWPVPAAAAAVIGPAGVLATHGDTARVFALASVTKPLVARAAQVAVEEGVVNLDTPAGPPGSTVRHLLAHTSGLAMHSDQALARPGTRRMYSNYGFTVLAESVQRESGIEFGRYLTEAVCEPLGMVTTRLDGGPAAAGFGATSTVADLAVFAGDLLRPSTVSAQMHADATTVQFPGLDGVLPGYGVQRPNDWGLGFEIRNSKSPHWTGECNSTRTFGHFGQSGGFIWVDPKADLALVVLTARDFGDWALDLWPAISDAVLAEYTLEHHHHHH | soluble |
| MSAVSYSMHRTTTTTSSSSHGGVSAGHAAEEFVASAEREKQEMQQLNSRLEVYISRVRQLEDRNKELVIELDTLRGSLGNDIGQIKFKFNDSLVKVRREISEAHSGTIGVEVKVDRLRDDLNDYRHRYEEARREVEREKTTWGGAISQAQAELDTNKSRYAAILDEEKRLYAEQDQLYLQLAAAKDELDAAIVDRRRLQAEEDDLKIELEFLGRIHSQEITELRTLLAQAPADTREFFKNELALAIREIKAEYDKIIQTTRVDLETIFQSKISAVESSIVSKNEAAVFRQEEIRKMNESITTLRAKLSELEARNSALEREANTLQIQLGEDQRAYESELHKRDNALRFMREDCQTLIAELQALLNTKQTLDTEIAIYRKLVESEEGRFTHVGQGVVVAQQETTRLVPVEQDHWDSGEVQTRSSFKRHAKGNVSIVECDPQGKYIILENTSGSVAEDVSNFEIRRVIDGVQAFVFRLPSHLVIQQHGHLKIYGRNSGGINSPPDSIVMESHPSWGQGGQVETFLYNSHGIEKASHIQTTVASSR | not soluble |
| MHHHHHHVMIMKAFISENVRGIYAFDENGNLIEKRYFTDKPEKVLDQLLKGEITKDLEELLNSLKEKGYDEFVFEHPELSRRAKELGFSATTEFPNIAGERLRSNPEEFLGENWFEEYYKVGVALTRMRIQEQSGARDKMVIQAIEALDDVDKVINLLVARLREWYSLHFPELDELLPKHPQYVAFVKTVGHRDNINEEVLRELGLSEEKIKKILEAKEKTMGAWMDQTDIEVVRQLAEEIDRLYQLRKKLEDYIDRAMDDVAPNLKALVGAKLAARLISLAGGLRELAMMPSSTIQVLGAEKALFRHLRTGAKPPKHGVIYQYPAINRSPWWQRGKIARALAGKLAIAARVDYFSGEYIAEELKKELEARIREIK | soluble |
| MKETNAGSVYSPELIEFATVGVEFCALVEQAAAHRTTDFIDKASKVLPLLYLKTALLPPYEYSEEVDFVEEYITEESYEQVRSAVESLLGSYDSFLDARHSDMQYSDTPVGASIGECLADVYQQVGNLLGVVRQSNDRAIPQAIGRCLTYFGEYWGNRLLAAAGALHELRYSEVYRTWEEEERAED | soluble |
| MGSDKIHHHHHHMSFELHPRYLEVHLHGRLCGFLCEAGGNTRFVPTDEYRGDNERYTLSLSITLPTEIGREATSAVFDNAFHPAIYNTGGELPPYFAGLLPEGELRKRLESTRTNPEDKDDFGVLASAGNDLPGAIVVKPADVRALPGYVRTYGVTGGADNLEIAVVEGATEGAASVSGVQNKLALSTMRKGERYTLPTKGKVSDIIAKLPAKNDDSQVFNEYVSMHLAAAAGVNIAPIQVLPMSSIDVPDLADLMGKGLHYLAVERFDRAADGGLLHAEDGCQMLGRMPNRKYAKREEYIRLLAALYRLSPKGFENVRQFFLRQAVNTLIGNSDAHLKNFSVIYRDRKLPELSPAYDIVCVAALPNFTSYGQNVAIDEIQRKETMDLYEDIADKAGIPRRIATAAVKEAVSMAHAHWPGLLEKMGASQALRDVIAERLENLPLAKVGRPTRKGA | not soluble |
| MAISKRHIGPYIIRETLGEGSFGKVKLATHYKTQQKVALKFISRQLLKKSDMHMRVEREISYLKLLRHPHIIKLYDVITTPTDIVMVIEYAGGELFDYIVEKKRMTEDEGRRFFQQIICAIEYCHRHKIVHRDLKPENLLLDDNLNVKIADFGLSNIMTDGNFLKTSCGSPNYAAPEVINGKLYAGPEVDVWSCGIVLYVMLVGRLPFDDEFIPNLFKKVNSCVYVMPDFLSPGAQSLIRRMIVADPMQRITIQEIRRDPWFNVNLPDYLRPMEEVQGSYADSRIVSKLGEAMGFSEDYIVEALRSDENNEVKEAYNLLHENQVIQEKLEHHHHHH | soluble |
| MFPLNFHYEDVLRQDLLLKLNYANVMEVPGLCEIRVVPKAPYNFIIKNGKLAMEIPCGQKFIQTQRGSTGKSFRSNPFLGSNKDKGYVSDLARQSTLRGHGMSNFLVRILTVMSLLDFPVEIRKNSIQFSMETEFCEFSPELEDHFEIFEHIRGFNVTIITSANTQDETLLLWSGFLQKDEGETQLEHHHHHH | not soluble |
| MSLRDSRYYCRLFSPAAVRGGIRRISAIYLNPSAFMSSLPITDRKIRFGLVGCGRISKNHIGAIAQHGDRAELVEICDTNPEALQAAEAATGARPFSSLSDMLAQGNADALVLATPSGLHPWQAIEVAQAGRHVVSEKPMATRWEDGKRMVKACDEAGVRLFVVKQNRRNATLQLVKKAIEQGRFGRIYMVTVNVFWTRPQEYYDAARWRGKWEWDGGAFMNQASHYVDLLDWLVGPVESVYAYTATLARRIEAEDTGVAALRWRHGAMGSINVTMLTYPQNLEGSITILGEKGTVRVGGVAVNRIDEWKFAEPHPDDDKIREANYETTSVYGFGHPLYYDNVINCLRGDCEPETDGREGLQSLALLTAIYRSARDGVRIPLPLDEGHHHHHH | soluble |
| MGSDKIHHHHHHMHHSHHLEIYEKLREKLNKAPIGLPKTVSGVEKELLSVLFDEEEAKIAVHMPFIRFTAEQLAERTGKSLEYVEKILNEMAKKGTVWKGEKDGQTYYRLFPVIVGFAETPFWPGPGKDPRQEKLARLWSQYRKEGFLDEIGDREHPIMRALPERDTISEKSEILPYEDAVKLVKERDYIAVGYCPCRVMARLVGEGCRHSIENCIHMGSVGKYMVEHGLGRRISADEAIEILRQSNREGLVHLTERSKHVATICNCCSDCCVFFKAVHEAKHPNTIAHSSYLATVDTSRCIACGICMLRCPMKAIKAKINREPASVDAEKCLGCGVCVPTCPMEAIELVERDELLELPDGMTYVQELLADKGRDPSGLF | not soluble |
| MHAYLHCLSHSPLVGYVDPAQEVLDEVNGVIASARERIAAFSPELVVLFAPDHYNGFFYDVMPPFCLGVGATAIGDFGSAAGELPVPVELAEACAHAVMKSGIDLAVSYCMQVDHGFAQPLEFLLGGLDKVPVLPVFINGVATPLPGFQRTRMLGEAIGRFTSTLNKRVLFLGSGGLSHQPPVPELAKADAHMRDRLLGSGKDLPASERELRQQRVISAAEKFVEDQRTLHPLNPIWDNQFMTLLEQGRIQELDAVSNEELSAIAGKSTHEIKTWVAAFAAISAFGNWRSEGRYYRPIPEWIAGFGSLSARTEN | not soluble |
| MGHHHHHHSHMRKTLIALMFATALPAIAMAAPPAPPAGAPDADAPGMHMQRGDRGPGMHRGPGPLKELDLTREQRQQIDRLMREQMHERREITQNYLEKMPAADQKAMRDEIEAKRSKTDSEVRALLKPDQQKQFDEIKKKEDERRAEWAEFKAWKAAKTAKAQ | soluble |
| SSNVIIMGHKFPDMDSIGAAIGILKVAQANNKDGFIVIDPNQIGSSVQRLIGEIKKYEELWSRFITPEEAMEISNDDTLLVIVDTHKPSLVMEERLVNKIEHIVVIDHHRRGEEFIRDPLLVYMEPYASSTAELVTELLEYQPKRLKINMIEATALLAGIIVDTKSFSLRTGSRTFDAASYLRAKGADTVLVQKFLKETV | not soluble |
| MSLDFNDEIYRELNRICASLSQQCSTYQPEFRTCLDAAFQALRGGKLIRPRMLLGLYNTLVDDDIEVKLNTVLQVAVALELLHFSLLVHDDVIDGDLYRRGKLNFIGQILMHRTPESFAQIQRDPEHLDWAQSNGLLMGNLFLAATHQIFARLDLPHHQRVRLLDLLNHTINDTIVGEFLDVGLSSKAISPNMDIALEMSRLKTATYTFELPMRAAAILAELPQEIETKIGEIGTNLGIAYQLQDDYLSTFGDAAEHGKDAFSDLREGKETTIIAFARDTAKWTDIQDNFGSADLSTSQAERIQHLLIQCGAKNHSLNAISDHLNICRSMIKTLSPQVDPKAQNLLLKQVEQLASRKSEGHHHHHH | soluble |
| MKPDIYALLERALLSGDPDEKGRLTDEAFAAVQNMDGAETNTPPLDFPRAGRPDKPVLVAPSQLTPRKMNTTEGYAAMLHAIAHIEFNAVNLALDAAYRFRTLPFQFVRDWVKVAKEEVYHFRLMRERLRAFGFDYGDFEAHNHLWDMAYKTAYDPLLRMALVPRVLEARGLDVTPGIRAKVAQRGDSETCGVLDIIYRDEVGHVAIGNRWYQHLCRERGLEPIALFRSLIARYDMFIFRGYVNIEAREKAGFSRFELDMLEDFEQSLKQNKNTVMGHHHHHHSH | soluble |
| MYIKNSERLKFRLMDSKDAQELWEIDQDPTVMKFLNGGNPTSIEQVNSVFIPRMNKYRNSELGWGIWQVSNKVTDEYLGWVLIRPMSFFTESPNTKDLELGWRFFQSTWGKGYATEAAIAIRDAVVANTDVTHVSALAVADNLASVGVMKKMGMHFVRAYLHEDPIGDFDAVHYQMSVRNK | not soluble |
| MGGSHHHHHHGMASALASEAPSPPRSPPPPTSPEPELAQLRRKVEKLERELRSCKRQVREIEKLLHHTERLYQNAESNNQELRTQVRGPPQPRAPSSPGEAFEARDSLGRGPWQGLRTTVEYLK | not soluble |
| MMARVEKLRELMKENNLQGFLVTSPYNLRYLTNFTGTTGLAMITLDKAFFVTDFRYTEQAAEQATGFTIVKNTGHIFDEVADLAERLQLDNLAFEETQVSFADYSLLEEILPCELVPVMGLIEELREVKDEEEVAIIEKACAIADQGFAFVLEMIKPGMTEIEVANQLDFFMRSKGASGVSFETIVASGLRSAMPHGVASHKVIEKGELITLDFGCYYEGYVSDMTRTFAIGSIQPKLKEIYDIVLEAQLKVLAEAKPGLTGIQLDAIARDHIASYGYGDAFGHSTGHGIGLEIHEGPNVSFRADKQFVPGNVITDEPGIYLPGIGGVRIEDDLLITAEGNRVLTHAPKELIIL | not soluble |
| MAHHHHHHMKGKGPIKIVLFGAPGVGKGTFAEILSKKENLKHINMGNILREEIKRKTTIGKEIDKVVTSGNLVGDDLIIRIVKDEIAKVTIQKDCYFKGFILDGFPRNLFQCNELAKITNIDLFINIYMPRHILIKKIMGRRICNDCNRNFNVVHIREDSYDMLPILPPQDCETCKGNPKLQTRSDDSEEIVAHRLNTYELTNSPLINFFKNSNCNFVDFEIKRGLQDFDSFYRIVSQNL | not soluble |
| MAQPSTTYKFELNLTDLDRNVYESVKQTIARHPSETEERMAVRLLAYALWYNENLSFGRGLSDVDEPALWEKSLDDRVLHWIEVGQPDADRLTWCSRRTERTSLLAYGSLRVWEGKVVSAVKNLKNLSIAAVPQEVLETLATDMPRSIKWDVMISEGTVFVTDDRGQHEVQLQWLLGERG | not soluble |
